This data set addresses T1, ΔNp63α R227Q (UniProt Q9H3D4-2 1-586, R172Q).
T1 sequence: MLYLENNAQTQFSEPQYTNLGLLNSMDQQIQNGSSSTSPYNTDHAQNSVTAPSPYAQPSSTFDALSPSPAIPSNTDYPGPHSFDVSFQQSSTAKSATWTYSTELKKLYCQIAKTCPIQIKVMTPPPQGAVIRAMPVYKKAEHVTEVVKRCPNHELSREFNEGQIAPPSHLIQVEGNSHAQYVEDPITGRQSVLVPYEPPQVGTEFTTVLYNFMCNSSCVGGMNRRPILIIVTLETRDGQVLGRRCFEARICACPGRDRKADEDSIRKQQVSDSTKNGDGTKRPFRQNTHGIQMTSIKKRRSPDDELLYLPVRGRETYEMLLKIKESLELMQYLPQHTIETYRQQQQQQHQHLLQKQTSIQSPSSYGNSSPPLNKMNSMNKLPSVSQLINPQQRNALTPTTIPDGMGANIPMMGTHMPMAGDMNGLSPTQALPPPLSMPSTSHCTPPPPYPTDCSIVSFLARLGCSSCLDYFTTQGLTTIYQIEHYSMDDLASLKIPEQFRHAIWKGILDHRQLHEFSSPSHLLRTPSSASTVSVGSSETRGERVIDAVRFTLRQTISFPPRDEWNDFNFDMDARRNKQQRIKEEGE
As to the kind of experiment: pull-down; not significantly different from WT; SPR DBD-TD: 25 mM HEPES pH 7.5, 200 mM NaCl, 0.5 mM TCEP, 0.005% Tween-20; SPR DBD: 10 mM HEPES pH 7.5, 150 mM NaCl, 0.2 mM TCEP, 0.005% Tween-20; random-sequence dsDNA (S12/S13) as reference cell; pull-down: 50 mM Tris pH 8.0, 150 mM NaCl, 0.1% Tween-20, 4 °C. The settings on record: protein: ivt, tags: Myc, chain copies: 4, blunt.

B1: KRT14 RE (pulldown) (dsDNA)
DNA 1: AAAATATGACAGACATGATGAGGCGGATGA
DNA 2: TCATCCGCCTCATCATGTCTGTCATATTTT
For B1, for the setting “label: 5' biotin on S10”, the binding result is listed as “binds”.

B2: p21 RE (pulldown) (dsDNA)
DNA 1: GCCAGGAACATGTCCCAACATGTTGAGCCG
DNA 2: CGGCTCAACATGTTGGGACATGTTCCTGGC
As for B2, for the setting “label: 5' biotin on S8”, the binding result is “binds”.

Values taken from article PMC10113246, “Disease-related p63 DBD mutations impair DNA binding by distinct mechanisms and varying degree”.
